# Experimental data as given in patent publication US20170008933A1 (GlaxoSmithKline, published 2017).
# Changes are numbered by the printed parent chain. In names and notes the source's numbering stands.
# B1: wild-type v2 fHbp (strain 2996) (other)
# chain: VAADIGAGLADALTAPLDHKDKSLQSLTLDQSVRKNEKLKLAAQGAEKTYGNGDSLNTGKLKNDKVSRFDFIRQIEVDGQLITLESGEFQIYKQDHSAVVALQIEKINNPDKIDSLINQRSFLVSGLGGEHTAFNQLPDGKAEYHGKAFSSDDAGGKLTYTIDFAAKQGHGKIEHLKTPEQNVELAAAELKADEKSHAVILGDTRYGSEEKGTYHLALFGDRAQEIAGSATVKIGEKVHEIGIAGKQ
# notes: Recombinant purified protein; The exact construct used in SPR is not spelled out; also called v2 w.t
# B2: v2 fHbp combined mutant #2 + #12 (other)
# chain: B1 chain with S32V, L123R, V124I, S125G, G126D, L127I, G128A
# notes: also called mutant #23; S32V + L123-G128 RIGDIA
# B3: v2 fHbp mutant #2 (S58V) (other)
# chain: B1 chain with S32V
# notes: also called S32V
# B4: v2 fHbp mutant #3 + 'E313A' (other)
# chain: B1 chain with S32V, L123R, E240A
# notes: also called S32V + L123R + E240A
# B5: v2 fHbp mutant #4 (L149R) (other)
# chain: B1 chain with L123R
# notes: also called L123R
# B6: v3 fHbp L149R mutant (L126R of SEQ ID NO: 17) (other)
# chain: VAADIGTGLADALTAPLDHKDKGLKSLTLEDSIPQNGTLTLSAQGAEKTFKAGDKDNSLNTGKLKNDKISRFDFVQKIEVDGQTITLASGEFQIYKQNHSAVVALQIEKINNPDKTDSLINQRSFRVSGLGGEHTAFNQLPGGKAEYHGKAFSSDDPNGRLHYSIDFTKKQGYGRIEHLKTLEQNVELAAAELKADEKSHAVILGDTRYGSEEKGTYHLALFGDRAQEIAGSATVKIGEKVHEIGIAGKQ
# notes: also called v3 equivalent of mutant #4
# B7: v3 fHbp S58V mutant (S32V of SEQ ID NO: 17) (other)
# chain: B6 chain with S32V, R126L
# notes: also called v3 equivalent of mutant #2
# Assays:
# [1] = molecular target: T1, human factor H (human, UniProt P08603 19-1231); assay: SPR against immobilised fH
# T1 construct: Immobilised on the chip in the SPR experiments; also called fH
# [2] = molecular target: T1, human factor H; assay: SPR
# T1 sequence (P08603 19-1231 limits assumed): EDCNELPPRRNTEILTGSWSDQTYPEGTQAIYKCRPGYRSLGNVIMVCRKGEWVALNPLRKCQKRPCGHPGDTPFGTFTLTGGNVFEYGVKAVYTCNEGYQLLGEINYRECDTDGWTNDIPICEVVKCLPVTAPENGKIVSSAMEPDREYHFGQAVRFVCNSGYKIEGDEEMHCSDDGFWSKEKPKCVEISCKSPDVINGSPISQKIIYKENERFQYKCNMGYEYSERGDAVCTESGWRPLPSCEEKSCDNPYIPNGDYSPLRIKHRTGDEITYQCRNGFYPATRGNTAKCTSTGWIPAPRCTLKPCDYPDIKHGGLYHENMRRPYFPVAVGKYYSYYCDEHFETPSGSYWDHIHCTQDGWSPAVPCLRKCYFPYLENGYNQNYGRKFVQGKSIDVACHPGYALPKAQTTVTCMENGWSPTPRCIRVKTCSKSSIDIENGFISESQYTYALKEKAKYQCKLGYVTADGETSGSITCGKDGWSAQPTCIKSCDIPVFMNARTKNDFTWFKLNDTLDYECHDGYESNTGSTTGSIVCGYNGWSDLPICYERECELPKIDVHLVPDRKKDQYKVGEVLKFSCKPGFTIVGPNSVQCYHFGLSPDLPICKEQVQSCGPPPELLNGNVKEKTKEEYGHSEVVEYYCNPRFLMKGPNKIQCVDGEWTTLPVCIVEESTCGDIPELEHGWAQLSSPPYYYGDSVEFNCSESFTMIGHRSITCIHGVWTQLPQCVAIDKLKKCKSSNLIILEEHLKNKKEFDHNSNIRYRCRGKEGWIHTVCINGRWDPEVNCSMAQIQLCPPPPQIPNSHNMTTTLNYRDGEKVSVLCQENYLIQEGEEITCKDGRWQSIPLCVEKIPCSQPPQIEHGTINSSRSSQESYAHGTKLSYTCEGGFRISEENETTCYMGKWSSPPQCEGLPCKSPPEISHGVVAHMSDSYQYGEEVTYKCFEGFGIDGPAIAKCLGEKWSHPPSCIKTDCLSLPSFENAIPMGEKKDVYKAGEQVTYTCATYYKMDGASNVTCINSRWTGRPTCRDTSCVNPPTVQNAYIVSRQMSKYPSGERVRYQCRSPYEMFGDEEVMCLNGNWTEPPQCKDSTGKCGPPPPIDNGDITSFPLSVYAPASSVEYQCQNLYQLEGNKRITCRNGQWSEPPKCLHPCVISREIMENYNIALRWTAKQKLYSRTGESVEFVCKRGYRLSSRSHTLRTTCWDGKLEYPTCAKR
binder,measurement,setting,value
B1,binding result,[1],binds
B2,fold reduction of the SPR peak value,[2],~8 fold
B3,binding result,[1],binds
B4,binding result,[2],no binding
B5,binding result,[1],binds
B6,binding result,[2],binds
B7,fold reduction of the SPR peak value against wild-type v3,[2],~2 fold
